# Test results reported in publication PMC2034485.
# Biological target: Rad18 S471A;Rad6 (hHR6B) (Homo sapiens;Homo sapiens, UniProt Q9NS91;P63146 1-495;1-152, S471A|)
# Test: EMSA, competition
# Sequence of Rad18 S471A;Rad6 (hHR6B) (Q9NS91 whole entry S471A, chain 1 of 2): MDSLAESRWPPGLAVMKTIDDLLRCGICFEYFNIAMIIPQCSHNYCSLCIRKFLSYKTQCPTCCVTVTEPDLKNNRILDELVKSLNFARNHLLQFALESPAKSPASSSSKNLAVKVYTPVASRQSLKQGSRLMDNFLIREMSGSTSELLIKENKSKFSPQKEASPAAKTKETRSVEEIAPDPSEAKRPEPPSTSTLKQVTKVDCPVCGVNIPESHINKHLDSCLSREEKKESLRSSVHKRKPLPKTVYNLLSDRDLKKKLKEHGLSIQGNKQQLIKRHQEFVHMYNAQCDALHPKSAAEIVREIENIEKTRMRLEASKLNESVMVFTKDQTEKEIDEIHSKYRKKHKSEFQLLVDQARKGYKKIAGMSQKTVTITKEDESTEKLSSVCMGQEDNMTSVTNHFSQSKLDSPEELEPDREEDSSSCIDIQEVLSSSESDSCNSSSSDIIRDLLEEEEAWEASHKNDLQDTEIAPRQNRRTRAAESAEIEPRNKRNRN
# Sequence of Rad18 S471A;Rad6 (hHR6B) (P63146 whole entry, chain 2 of 2): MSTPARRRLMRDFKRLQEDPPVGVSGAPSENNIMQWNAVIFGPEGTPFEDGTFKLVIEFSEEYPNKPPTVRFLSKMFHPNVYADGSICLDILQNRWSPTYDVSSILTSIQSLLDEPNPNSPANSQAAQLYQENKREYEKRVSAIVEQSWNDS
binder,measurement,value
TTTTTTTTTTTTTTTTTTTTTTTTTTTTTTTTTTT (ssDNA) [35T],binding result,binds
